# Measurements reported in patent US20250154277A1 (CONCEPT TO MEDICINE BIOTECH, published 2025).
# Substitutions are numbered along the chain they refer to.
# T1: human 5T4-His protein (human, UniProt Q13641 32-355)
# T1 construct: also called recombinant 5T4 protein (human 5T4-his tag); human 5T4 protein; not shown: His tag
# T1 sequence (looked up): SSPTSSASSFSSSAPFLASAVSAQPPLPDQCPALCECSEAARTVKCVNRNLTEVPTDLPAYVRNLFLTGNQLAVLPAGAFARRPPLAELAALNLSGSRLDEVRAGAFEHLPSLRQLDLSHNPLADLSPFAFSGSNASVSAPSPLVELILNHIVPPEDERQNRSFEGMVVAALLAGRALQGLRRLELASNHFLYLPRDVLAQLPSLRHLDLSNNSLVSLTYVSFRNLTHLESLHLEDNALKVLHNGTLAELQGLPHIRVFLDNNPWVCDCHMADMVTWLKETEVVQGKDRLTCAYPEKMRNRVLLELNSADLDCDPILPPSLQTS
# B1: Hu14G12-33 (antibody, V domains shown)
# VH: QVQLVQSGAEVKKPGASVKVSCKASGYAFSSSWMNWVRQAPGQGLEWMGRIYREDGHTNYNGKFKGRVTMTADKSTTTAYMELSSLRSEDTAVYYCANGGAMDYWGQGTLVTVSS
# VL: DIQMTQSPSSLSASVGDRVTITCRASQDISNYLNWYQQKPGKAPKLLIYYTSRLHSGVPSRFSGSGSGTDYTFTISSLQPEDIATYFCQQDNTLPWTFGGGTKVEIK
# notes: humanized
# B2: Hu14G12-17 (antibody, V domains shown)
# VH: QVQLVQSGAEVKKPGSSVKVSCKASGGTFSSSWMNWVKQAPGQGLEWIGRIYREDGHTNYNGKFKGKATLTADKSTSTAYMELSSLRSEDTAVYFCANGGAMDYWGQGTTVTVSS
# VL: B1 VL with A43V, Y71F, F73L, I83V, F87Y, V104L
# notes: humanized
# B3: Hu14G12-21 (antibody, V domains shown)
# VH: B2 VH with K67R, L70I
# VL: B1 VL with A43V, Y71F, F73L, I83V, F87Y, V104L
# notes: humanized
# B4: Hu14G12-36 (antibody, V domains shown)
# VH: B1 VH
# VL: DIVMTQSPDSLAVSLGERATINCRASQDISNYLNWYQQKPGQPPKLLIYYTSRLHSGVPDRFSGSGSGTDYTLTISSLQAEDIAVYFCQQDNTLPWTFGGGTKVEIK
# notes: humanized
# B5: Hu14G12-22 (antibody, V domains shown)
# VH: B2 VH with K67R, L70I
# VL: B1 VL with A43V, F73L, I83V, V104L
# notes: humanized
# B6: Hu14G12-20 (antibody, V domains shown)
# VH: B2 VH with K67R
# VL: B1 VL with A43V, F73L, I83V, V104L
# notes: humanized
# B7: Hu14G12-35 (antibody, V domains shown)
# VH: B1 VH
# VL: EIVMTQSPATLSLSPGERATLSCRASQDISNYLNWYQQKPGQAPRLLIYYTSRLHSGIPARFSGSGSGTDYTLTISSLEPEDIAVYFCQQDNTLPWTFGGGTKVEIK
# notes: humanized
# B8: Hu14G12-19 (antibody, V domains shown)
# VH: B2 VH with K67R
# VL: B1 VL with A43V, Y71F, F73L, I83V, F87Y, V104L
# notes: humanized
# B9: Hu14G12-30 (antibody, V domains shown)
# VH: B1 VH with T76I, S85R, E89D
# VL: B7 VL
# notes: humanized
# B10: Hu14G12-25 (antibody, V domains shown)
# VH: B1 VH with A16S, M70I
# VL: B7 VL
# notes: humanized
# B11: Hu14G12-2 (antibody, V domains shown)
# VH: B1 VH with Q1E, S17T, V20I, A24V, R38Q, Q43K, M70I, K74T, T77D, N98T
# VL: B1 VL with V104L
# notes: humanized
# B12: Hu14G12-23 (antibody, V domains shown)
# VH: B1 VH with A16S, M70I
# VL: B1 VL
# notes: humanized
# B13: Hu14G12-40 (antibody, V domains shown)
# VH: B1 VH with G44R, M70I, T76A
# VL: B7 VL
# notes: humanized
# B14: Hu14G12-6 (antibody, V domains shown)
# VH: EVQLVQSGAEVKKPGATVKISCKVSGYAFSSSWMNWVQQAPGKGLEWIGRIYREDGHTNYNGKFKGRVTITADTSTDTAYMELSSLRSEDTAVYFCANGGAMDYWGQGTLVTVSS
# VL: B1 VL with V104L
# notes: humanized
# B15: Hu14G12-43 (antibody, V domains shown)
# VH: B1 VH with S84R, E89D
# VL: B1 VL
# notes: humanized
# B16: Hu14G12-42 (antibody, V domains shown)
# VH: B1 VH with G44R, M70I, T76A
# VL: B1 VL with S10T, D70E, F73L, E81D
# notes: humanized
# B17: Hu14G12-24 (antibody, V domains shown)
# VH: B1 VH with A16S, M70I
# VL: B1 VL with F73L
# notes: humanized
# B18: Hu14G12-47 (antibody, V domains shown)
# VH: B1 VH with S84R, E89D
# VL: B1 VL with S10T, D70E, F73L, E81D
# notes: humanized
# B19: Hu14G12-14 (antibody, V domains shown)
# VH: B14 VH with V24A, Q38K, V68A, D77T, T91S
# VL: B1 VL with V104L
# notes: humanized
# B20: Hu14G12-34 (antibody, V domains shown)
# VH: B1 VH
# VL: B1 VL with F73L
# notes: humanized
# B21: Hu14G12-10 (antibody, V domains shown)
# VH: B14 VH with Q38K, V68A, D77T
# VL: B1 VL with V104L
# notes: humanized
# B22: Hu14G12-26 (antibody, V domains shown)
# VH: B1 VH with A16S, M70I
# VL: B4 VL
# notes: humanized
# B23: Hu14G12-37 (antibody, V domains shown)
# VH: B1 VH
# VL: B1 VL with S10T, D70E, F73L, E81D
# notes: humanized
# B24: Hu14G12-29 (antibody, V domains shown)
# VH: B1 VH with T76I, S85R, E89D
# VL: B1 VL with F73L
# notes: humanized
# B25: Hu14G12-46 (antibody, V domains shown)
# VH: B1 VH with S84R, E89D
# VL: B4 VL
# notes: humanized
# B26: Hu14G12-32 (antibody, V domains shown)
# VH: B1 VH with T76I, S85R, E89D
# VL: B1 VL with S10T, D70E, F73L, E81D
# notes: humanized
# B27: Hu14G12-27 (antibody, V domains shown)
# VH: B1 VH with A16S, M70I
# VL: B1 VL with S10T, D70E, F73L, E81D
# notes: humanized
# B28: Hu14G12-45 (antibody, V domains shown)
# VH: B1 VH with S84R, E89D
# VL: B7 VL
# notes: humanized
# B29: Hu14G12-41 (antibody, V domains shown)
# VH: B1 VH with G44R, M70I, T76A
# VL: B4 VL
# notes: humanized
# B30: Hu14G12-39 (antibody, V domains shown)
# VH: B1 VH with G44R, M70I, T76A
# VL: B1 VL with F73L
# notes: humanized
# B31: Hu14G12-38 (antibody, V domains shown)
# VH: B1 VH with G44R, M70I, T76A
# VL: B1 VL
# notes: humanized
# B32: Hu14G12-44 (antibody, V domains shown)
# VH: B1 VH with S84R, E89D
# VL: B1 VL with F73L
# notes: humanized
# B33: Hu14G12-31 (antibody, V domains shown)
# VH: B1 VH with T76I, S85R, E89D
# VL: B4 VL
# notes: humanized
# Target: T1, human 5T4-His protein
# Experiment: ELISA, coated 5T4-His
# Protocol: To evaluate the binding activity of 14G12 humanized antibodies to human 5T4, the 14G12 chimeric antibody along with 14G12 humanized mAbs were subjected to ELISA test.
# Briefly, microtiter plates were coated with human 5T4-His protein at 1 μg/ml in PBS, 100 μl/well at 4° C. overnight, then blocked with […]. Serial dilutions of antibodies were added to each well and incubated for 1 hour at 37° C. The plates were washed with PBS/Tween and then incubated with Goat Anti-Human IgG-HRP for 30 mins at 37° C. After washing, the plates were developed with TMB substrate and analyzed by spectrophotometer at OD 450 nm. As shown in FIG. 10 and Table 6, most of the humanized antibodies bound to human 5T4 at high activity.
row,EC50 [ng/mL],Binder
1,11,B1
2,520,B2
3,400,B3
4,6.8,B4
5,450,B5
6,320,B6
7,13,B7
8,400,B8
9,10,B9
10,6,B10
11,21,B11
12,7.1,B12
13,28,B13
14,10,B14
15,6.4,B15
16,7.8,B16
17,4.9,B17

row,EC50 [ng/mL],Binder
1,14,B18
2,14,B19
3,8.7,B20
4,15,B21
5,6.9,B22
6,11,B23
7,6.7,B24
8,23,B25
9,9.3,B26
10,7.8,B27
11,8.2,B28
12,4.7,B29
13,6.9,B30
14,6.4,B31
15,7.5,B32
16,8.4,B33

# Target: T1, human 5T4-His protein
# Experiment: SPR Biacore, Protein A capture
# Protocol: The binding of the 14G12 humanized antibodies to recombinant 5T4 protein (human 5T4-his tag) was tested with Biacore using a capture method. The mAbs were captured using Protein A chip. Serial dilution of human 5T4-his tag protein was injected over captured antibody for 120 s-180 s at a flow rate of 30 μl/min. The antigen was allowed to dissociate for 360 s-1000 s. All the experiments were carried out on a Biacore T200. Data analysis was carried out using the Biacore T200 evaluation software.
Kd [nM],koff [s⁻¹],kon [M⁻¹ s⁻¹],Binder
21.5,0.00436,203000,B11
2.58,0.000908,352000,B12
2.68,0.00077,288000,B14
0.844,0.0016,1.89e+06,B15
2.1,0.000921,438000,B18
3.39,0.000701,207000,B19
2.42,0.000512,212000,B21
1.05,0.00142,1.34e+06,B23
2.14,0.0011,514000,B24
2.76,0.000979,355000,B26
1.41,0.00197,1.4e+06,B32
